Source: PMC6853987, “ClpP protease activation results from the reorganization of the electrostatic interaction networks at the entrance pores” (Communications Biology, 2019)

Columns and labels:
[1] = biological target: the molecule itself; assay: crystal structure; apo-NmClpP 5 mg/mL in 25 mM TrisHCl pH 7.5, 100 mM KCl; well 0.2 M potassium thiocyanate, 40% MPD, room temperature; self-association (tetradecamer)
[2] = biological target: the molecule itself; assay: crystal structure; EcClpP 10 mg/mL in 10 mM HEPES pH 7.5, 200 mM NaCl with 5 mM ACP1-06; well 51-63% MPD, 0.1 M sodium acetate pH 5.0, room temperature; self-association (tetradecamer)

Protein	stoichiometry N [1]	stoichiometry N [2]
Neisseria meningitidis ClpP (NmClpP), wild type (enzyme, ClpP, N. meningitidis MC58; expressed full length with N-terminal His6 tag and TEV site; also called apo-NmClpP; WT NmClpP; not shown: His6, N-terminal, cleaved; copies: 14) not shown	14	–
Escherichia coli ClpP (EcClpP), wild type (enzyme, ClpP protease proteolytic subunit, E. coli; Crystallised with the small molecule ACP1-06; An unexplained density extends from S111 in the structure (possible covalent modification, not identified); also called E. coli ClpP; caseinolytic protease P; copies: 14) not shown	–	14
